The term Kd denotes a measure of binding affinity in units of concentration.

One test has as its target BMP-9 (Homo sapiens) (UniProt Q9UK05). Particulars: cited from earlier work.
A further test addresses T1, Human BMP-9 (human, UniProt Q9UK05 320-429).
T1 sequence (looked up): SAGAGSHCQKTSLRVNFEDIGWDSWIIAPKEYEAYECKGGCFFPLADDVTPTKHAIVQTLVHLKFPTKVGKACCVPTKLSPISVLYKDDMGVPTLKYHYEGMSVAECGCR
Nature of the test: SPR. (In general: In SPR one partner is held on a chip, and binding of the other changes the refractive index at the surface.)

On to Fc-Alk1 ECD (from UniProt P37023), for which the Kd with BMP-9 (Homo sapiens) was 0.0025 µM.

B1: Alk1 extracellular domain with Arg53-Glu54-Leu55 swapped for Asp-Phe-Gln of Alk3 (Alk1-DFQ) (domain or fragment, human)
chain: GSHMDPVKPSRGPLVTCTCESPHCKGPTCRGAWCTVVLVREEGRHPQEHRGCGNLHDFQCRGRPTEFVNHYCCDSHLCNHNVSLVLEATQPPSEQPGTDGQ
Take B1: the Kd in the test with Human BMP-9 amounted to 5.7 µM.

(Values after PMC3448977 (Biochemistry, 2012).)
